Measured values taken from PMC9482650, “Quantitative fragmentomics allow affinity mapping of interactomes” (Nature Communications, 2022).

What was measured:
Assay in all cases: holdup assay
Parameters in all cases: key: below the threshold = too weak to quantify, mostly under pKd 3.1 to 4
GRIP1_7, Q9Y3R0 = molecular target: T1, GRIP1_7, Q9Y3R0
T1 sequence (Q9Y3R0 999-1096, limits assumed, looked up): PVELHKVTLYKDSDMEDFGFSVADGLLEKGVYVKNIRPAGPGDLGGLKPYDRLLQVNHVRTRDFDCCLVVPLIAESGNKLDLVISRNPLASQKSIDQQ

DLG3_1, Q92796 = molecular target: T2, DLG3_1, Q92796
T2 sequence (Q92796 125-227, limits assumed, looked up): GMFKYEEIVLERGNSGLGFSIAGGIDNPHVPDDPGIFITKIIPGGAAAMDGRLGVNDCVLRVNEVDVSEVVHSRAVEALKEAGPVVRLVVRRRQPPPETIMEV

DLG4_1, P78352 = molecular target: DLG4_1, P78352
LIN7A, O14910 = molecular target: T3, LIN7A, O14910
T3 sequence (O14910 103-200, limits assumed, looked up): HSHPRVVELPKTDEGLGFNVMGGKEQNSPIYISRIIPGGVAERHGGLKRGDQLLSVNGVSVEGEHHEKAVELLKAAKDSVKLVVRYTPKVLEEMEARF

PDLIM1, O00151 = molecular target: PDLIM1, O00151
Inadl_3, Q8NI35 = molecular target: Inadl_3, Q8NI35
PARD3B_1, Q8TEW8 = molecular target: T4, PARD3B_1, Q8TEW8
T4 sequence (Q8TEW8 196-299, limits assumed, looked up): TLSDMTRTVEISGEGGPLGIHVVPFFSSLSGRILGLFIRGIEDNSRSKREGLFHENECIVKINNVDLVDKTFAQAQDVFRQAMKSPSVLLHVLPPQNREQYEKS

PDZRN3_1, Q9UPQ7 = molecular target: T5, PDZRN3_1, Q9UPQ7
T5 sequence (Q9UPQ7 244-349, limits assumed, looked up): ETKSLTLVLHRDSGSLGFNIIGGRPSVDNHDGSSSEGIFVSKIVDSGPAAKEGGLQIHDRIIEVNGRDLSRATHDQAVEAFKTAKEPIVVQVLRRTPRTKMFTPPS

MAGI2_3, Q86UL8 = molecular target: MAGI2_3, Q86UL8
FRMPD1, Q5SYB0 = molecular target: T6, FRMPD1, Q5SYB0
T6 sequence (Q5SYB0 52-145, limits assumed, looked up): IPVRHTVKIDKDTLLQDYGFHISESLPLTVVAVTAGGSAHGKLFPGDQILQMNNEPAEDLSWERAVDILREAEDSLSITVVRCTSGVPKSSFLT

IL16_4, Q14005 = molecular target: IL16_4, Q14005
FRMPD4, Q14CM0 = molecular target: FRMPD4, Q14CM0
CARD11, Q9BXL7 = molecular target: T7, CARD11, Q9BXL7
T7 sequence (Q9BXL7 662-765, limits assumed, looked up): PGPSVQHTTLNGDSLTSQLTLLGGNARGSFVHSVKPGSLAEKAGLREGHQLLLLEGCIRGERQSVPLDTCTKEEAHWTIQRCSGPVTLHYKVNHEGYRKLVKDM

APBA3_1, O96018 = molecular target: T8, APBA3_1, O96018
T8 sequence (O96018 389-490, limits assumed, looked up): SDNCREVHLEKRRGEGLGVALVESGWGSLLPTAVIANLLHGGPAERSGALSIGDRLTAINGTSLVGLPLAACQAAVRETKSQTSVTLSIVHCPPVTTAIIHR

GRIP1_5, Q9Y3R0 = molecular target: T9, GRIP1_5, Q9Y3R0
T9 sequence (Q9Y3R0 568-668, limits assumed, looked up): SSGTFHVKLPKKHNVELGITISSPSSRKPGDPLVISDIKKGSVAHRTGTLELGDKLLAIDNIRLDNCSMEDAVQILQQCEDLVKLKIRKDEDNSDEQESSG

LDB3, O75112 = molecular target: LDB3, O75112
NHERF3_1, Q5T2W1 = molecular target: T10, NHERF3_1, Q5T2W1
T10 sequence (Q5T2W1 4-100, limits assumed, looked up): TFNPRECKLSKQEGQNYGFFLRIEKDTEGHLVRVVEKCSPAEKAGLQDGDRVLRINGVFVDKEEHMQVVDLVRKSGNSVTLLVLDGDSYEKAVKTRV

MPDZ_12, O75970 = molecular target: T11, MPDZ_12, O75970
T11 sequence (O75970 1857-1958, limits assumed, looked up): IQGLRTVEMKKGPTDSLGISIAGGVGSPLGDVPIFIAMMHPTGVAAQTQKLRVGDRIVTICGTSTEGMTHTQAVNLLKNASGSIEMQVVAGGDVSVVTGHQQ

GRID2IP_1, A4D2P6 = molecular target: GRID2IP_1, A4D2P6
PARD3_3, Q8TEW0 = molecular target: PARD3_3, Q8TEW0
MPDZ_5, O75970 = molecular target: T12, MPDZ_5, O75970
T12 sequence (O75970 695-796, limits assumed, looked up): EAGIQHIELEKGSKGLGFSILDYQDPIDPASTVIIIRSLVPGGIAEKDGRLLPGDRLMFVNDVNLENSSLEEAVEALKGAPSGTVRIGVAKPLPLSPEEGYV

MAGI2_6, Q86UL8 = molecular target: MAGI2_6, Q86UL8
APBA2_1, Q99767 = molecular target: T13, APBA2_1, Q99767
T13 sequence (Q99767 563-664, limits assumed, looked up): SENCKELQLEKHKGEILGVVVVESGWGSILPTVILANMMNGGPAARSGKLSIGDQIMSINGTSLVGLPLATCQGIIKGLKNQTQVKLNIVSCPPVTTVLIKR

NOS1, P29475 = molecular target: NOS1, P29475
[1] = plain residues with an end cap or a label only (N-terminal biotin on a linker: ttds)
[2] = plain residues with an end cap or a label only (N-terminal biotin on a linker: none)
[3] = plain residues with an end cap or a label only (N-terminal biotin on a linker: ahx)

IL16_4, Q14005, sequence (Q14005 1229-1329): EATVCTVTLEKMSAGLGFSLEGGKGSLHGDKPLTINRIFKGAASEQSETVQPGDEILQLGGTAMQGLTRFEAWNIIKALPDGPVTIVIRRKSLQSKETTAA
DLG4_1, P78352, sequence (P78352 62-152): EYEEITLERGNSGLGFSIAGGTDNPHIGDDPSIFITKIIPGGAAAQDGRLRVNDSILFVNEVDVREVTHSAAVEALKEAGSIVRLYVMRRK
GRID2IP_1, A4D2P6, sequence (A4D2P6 1-87): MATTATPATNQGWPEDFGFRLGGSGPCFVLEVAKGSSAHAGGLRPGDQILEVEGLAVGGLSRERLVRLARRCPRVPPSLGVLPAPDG
NOS1, P29475, sequence (P29475 9-101): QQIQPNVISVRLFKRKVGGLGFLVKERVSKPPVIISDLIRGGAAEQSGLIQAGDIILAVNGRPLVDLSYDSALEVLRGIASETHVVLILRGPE
PDLIM1, O00151, sequence (O00151 1-87): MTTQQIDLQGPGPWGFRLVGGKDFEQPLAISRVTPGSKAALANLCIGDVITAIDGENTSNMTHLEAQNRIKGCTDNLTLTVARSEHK
MAGI2_3, Q86UL8, sequence (Q86UL8 600-682): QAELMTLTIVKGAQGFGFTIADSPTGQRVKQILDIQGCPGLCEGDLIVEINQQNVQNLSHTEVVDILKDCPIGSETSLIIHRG
Inadl_3, Q8NI35, sequence (Q8NI35 359-469): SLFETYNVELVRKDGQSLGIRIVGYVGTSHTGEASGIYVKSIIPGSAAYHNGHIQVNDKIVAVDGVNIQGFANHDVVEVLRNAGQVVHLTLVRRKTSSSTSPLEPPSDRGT
FRMPD4, Q14CM0, sequence (Q14CM0 67-160): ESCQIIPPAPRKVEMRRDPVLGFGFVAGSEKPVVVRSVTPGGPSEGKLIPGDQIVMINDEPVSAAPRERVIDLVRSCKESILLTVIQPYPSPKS
LDB3, O75112, sequence (O75112 1-94): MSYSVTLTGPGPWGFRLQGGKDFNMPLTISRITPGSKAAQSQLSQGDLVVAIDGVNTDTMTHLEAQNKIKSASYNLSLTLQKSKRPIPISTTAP
PARD3_3, Q8TEW0, sequence (Q8TEW0 582-685): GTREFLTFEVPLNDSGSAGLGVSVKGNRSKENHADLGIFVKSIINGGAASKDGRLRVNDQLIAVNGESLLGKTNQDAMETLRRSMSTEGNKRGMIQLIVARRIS
MAGI2_6, Q86UL8, sequence (Q86UL8 1141-1229): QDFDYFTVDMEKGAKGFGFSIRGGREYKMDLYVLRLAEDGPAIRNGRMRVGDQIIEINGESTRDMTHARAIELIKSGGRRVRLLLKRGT

**Q.** Which results are given for PVRVCEETSL [OTULIN, Q96BN8]?
**A.** pKd (GRIP1_7, Q9Y3R0; [1]): 3.75; pKd (DLG3_1, Q92796; [1]): 3.75; pKd (DLG4_1, P78352; [1]): 4.11; pKd (LIN7A, O14910; [1]): 3.47; pKd (PDLIM1, O00151; [1]): below the threshold; pKd (Inadl_3, Q8NI35; [1]): 3.66; pKd (PARD3B_1, Q8TEW8; [1]): 4.09; pKd (PDZRN3_1, Q9UPQ7; [1]): 4.99; pKd (MAGI2_3, Q86UL8; [1]): below the threshold; pKd (FRMPD1, Q5SYB0; [1]): below the threshold; pKd (IL16_4, Q14005; [1]): 3.66; pKd (FRMPD4, Q14CM0; [1]): 4.59; pKd (CARD11, Q9BXL7; [1]): 3.59; pKd (APBA3_1, O96018; [1]): 3.51; pKd (GRIP1_5, Q9Y3R0; [1]): 3.78; pKd (LDB3, O75112; [1]): below the threshold; pKd (NHERF3_1, Q5T2W1; [1]): 5.92; pKd (MPDZ_12, O75970; [1]): below the threshold; pKd (GRID2IP_1, A4D2P6; [1]): below the threshold; pKd (PARD3_3, Q8TEW0; [1]): 3.59; pKd (MPDZ_5, O75970; [1]): below the threshold; pKd (MAGI2_6, Q86UL8; [1]): 4.06; pKd (APBA2_1, Q99767; [1]): below the threshold; pKd (NOS1, P29475; [1]): 3.79

**Q.** What does the source list for NLNSSRVPDLLV [SARS-CoV2-E, P0DTC4]?
**A.** pKd (GRIP1_7, Q9Y3R0; [2]): below the threshold; pKd (DLG3_1, Q92796; [2]): below the threshold; pKd (DLG4_1, P78352; [2]): below the threshold; pKd (LIN7A, O14910; [2]): below the threshold; pKd (PDLIM1, O00151; [2]): below the threshold; pKd (Inadl_3, Q8NI35; [2]): 3.47; pKd (PARD3B_1, Q8TEW8; [2]): below the threshold; pKd (PDZRN3_1, Q9UPQ7; [2]): below the threshold; pKd (MAGI2_3, Q86UL8; [2]): below the threshold; pKd (FRMPD1, Q5SYB0; [2]): below the threshold; pKd (IL16_4, Q14005; [2]): below the threshold; pKd (FRMPD4, Q14CM0; [2]): 3.48; pKd (CARD11, Q9BXL7; [2]): below the threshold; pKd (APBA3_1, O96018; [2]): below the threshold; pKd (GRIP1_5, Q9Y3R0; [2]): below the threshold; pKd (LDB3, O75112; [2]): below the threshold; pKd (NHERF3_1, Q5T2W1; [2]): below the threshold; pKd (MPDZ_12, O75970; [2]): below the threshold; pKd (GRID2IP_1, A4D2P6; [2]): below the threshold; pKd (PARD3_3, Q8TEW0; [2]): 3.82; pKd (MPDZ_5, O75970; [2]): below the threshold; pKd (MAGI2_6, Q86UL8; [2]): below the threshold; pKd (APBA2_1, Q99767; [2]): below the threshold; pKd (NOS1, P29475; [2]): below the threshold

**Q.** How did the pKd (GRIP1_7, Q9Y3R0; [3]) turn out when TVICWPGSLV [LNX2, Q8N448] was run?
**A.** Its pKd is “below the threshold”.

**Q.** What about the pKd (DLG3_1, Q92796; [3]) of the same binder?
**A.** Its pKd is 4.01.

**Q.** What about the pKd (DLG4_1, P78352; [3]) of the same binder?
**A.** The pKd was 4.44.

**Q.** And the pKd (LIN7A, O14910; [3])?
**A.** The pKd was 4.35.

**Q.** What about the pKd (PDLIM1, O00151; [3]) of the same binder?
**A.** The pKd was 4.31.

**Q.** What about the pKd (Inadl_3, Q8NI35; [3]) of the same binder?
**A.** The pKd was 4.19.

**Q.** What about the pKd (PARD3B_1, Q8TEW8; [3]) of the same binder?
**A.** Its pKd is 3.99.

**Q.** And the pKd (PDZRN3_1, Q9UPQ7; [3])?
**A.** The pKd was 4.17.

**Q.** What about the pKd (MAGI2_3, Q86UL8; [3]) of the same binder?
**A.** Its pKd is 3.66.

**Q.** What about the pKd (FRMPD1, Q5SYB0; [3]) of the same binder?
**A.** The pKd was “below the threshold”.

**Q.** And the pKd (IL16_4, Q14005; [3])?
**A.** Its pKd is “below the threshold”.

**Q.** What about the pKd (FRMPD4, Q14CM0; [3]) of the same binder?
**A.** The pKd was “below the threshold”.

**Q.** And the pKd (CARD11, Q9BXL7; [3])?
**A.** Its pKd is “below the threshold”.

**Q.** What about the pKd (APBA3_1, O96018; [3]) of the same binder?
**A.** Its pKd is “below the threshold”.

**Q.** What about the pKd (GRIP1_5, Q9Y3R0; [3]) of the same binder?
**A.** Its pKd is “below the threshold”.

**Q.** What about the pKd (LDB3, O75112; [3]) of the same binder?
**A.** Its pKd is “below the threshold”.

**Q.** And the pKd (NHERF3_1, Q5T2W1; [3])?
**A.** Its pKd is 4.73.

**Q.** What about the pKd (MPDZ_12, O75970; [3]) of the same binder?
**A.** Its pKd is 3.84.

**Q.** What about the pKd (GRID2IP_1, A4D2P6; [3]) of the same binder?
**A.** Its pKd is “below the threshold”.

**Q.** And the pKd (PARD3_3, Q8TEW0; [3])?
**A.** Its pKd is 3.68.

**Q.** And the pKd (MPDZ_5, O75970; [3])?
**A.** The pKd was 4.03.

**Q.** And the pKd (MAGI2_6, Q86UL8; [3])?
**A.** The pKd was 3.56.

**Q.** And the pKd (APBA2_1, Q99767; [3])?
**A.** Its pKd is “below the threshold”.

**Q.** What about the pKd (NOS1, P29475; [3]) of the same binder?
**A.** Its pKd is 3.82.
